{
  "source": "paper PMC11615228",
  "about": "“3D variability analysis reveals a hidden conformational change controlling ammonia transport in human asparagine synthetase” (Nature Communications, 2024)",
  "proteins": {"B1": {"name": "wild-type (WT) human asparagine synthetase (ASNS) (enzyme, UniProt P08243 1-561, looked up)", "chain": "MCGIWALFGSDDCLSVQCLSAMKIAHRGPDAFRFENVNGYTNCCFGFHRLAVVDPLFGMQPIRVKKYPYLWLCYNGEIYNHKKMQQHFEFEYQTKVDGEIILHLYDKGGIEQTICMLDGVFAFVLLDTANKKVFLGRDTYGVRPLFKAMTEDGFLAVCSEAKGLVTLKHSATPFLKVEPFLPGHYEVLDLKPNGKVASVEMVKYHHCRDVPLHALYDNVEKLFPGFEIETVKNNLRILFNNAVKKRLMTDRRIGCLLSGGLDSSLVAATLLKQLKEAQVQYPLQTFAIGMEDSPDLLAARKVADHIGSEHYEVLFNSEEGIQALDEVIFSLETYDITTVRASVGMYLISKYIRKNTDSVVIFSGEGSDELTQGYIYFHKAPSPEKAEEESERLLRELYLFDVLRADRTTAAHGLELRVPFLDHRFSSYYLSLPPEMRIPKNGIEKHLLRETFEDSNLIPKEILWRPKEAFSDGITSVKNSWFKILQEYVEHQVDDAMMANAAQKFPFNTPKTKEGYYYRQVFERHYPGRADWLSHYWMPKWINATDPSARTLTHYKSAVKA", "notes": "human asparagine synthetase (glutamine-hydrolysing), unmodified recombinant enzyme; the N-terminal residue is Cys-1 (initiator Met removed) and the C-terminal tail ends at residue 560; Cys-1 is C2 in P08243); No tag is stated for the WT enzyme; the variants were purified on Ni-NTA, so the WT construct may also carry a His tag; Residues 201-220, 465-475 and 539-560 have no density in the EM map …"}, "B2": {"name": "R142I ASNS variant (human asparagine synthetase with Arg-142 replaced by isoleucine) (enzyme, UniProt P08243 1-561, looked up)", "chain": "MCGIWALFGSDDCLSVQCLSAMKIAHRGPDAFRFENVNGYTNCCFGFHRLAVVDPLFGMQPIRVKKYPYLWLCYNGEIYNHKKMQQHFEFEYQTKVDGEIILHLYDKGGIEQTICMLDGVFAFVLLDTANKKVFLGRDTYGVIPLFKAMTEDGFLAVCSEAKGLVTLKHSATPFLKVEPFLPGHYEVLDLKPNGKVASVEMVKYHHCRDVPLHALYDNVEKLFPGFEIETVKNNLRILFNNAVKKRLMTDRRIGCLLSGGLDSSLVAATLLKQLKEAQVQYPLQTFAIGMEDSPDLLAARKVADHIGSEHYEVLFNSEEGIQALDEVIFSLETYDITTVRASVGMYLISKYIRKNTDSVVIFSGEGSDELTQGYIYFHKAPSPEKAEEESERLLRELYLFDVLRADRTTAAHGLELRVPFLDHRFSSYYLSLPPEMRIPKNGIEKHLLRETFEDSNLIPKEILWRPKEAFSDGITSVKNSWFKILQEYVEHQVDDAMMANAAQKFPFNTPKTKEGYYYRQVFERHYPGRADWLSHYWMPKWINATDPSARTLTHYKSAVKA", "notes": "human asparagine synthetase with R142I; only elution from Ni-NTA with imidazole is described; also called R142I variant; ASNS R142I; source: Sf9 cells (baculovirus), purified (Ni-NTA, PD-10 buffer exchange)"}},
  "target": "the molecule itself",
  "experiment": "cryo-EM structure; single-particle cryo-EM of the purified enzyme without ligands; 25 mM Tris-HCl pH 8.0, 200 mM NaCl, 5 mM DTT; WT at 9.0 mg/mL, R142I at 3.2 mg/mL; grids made at 4 °C; C2 symmetry imposed",
  "data": [
    {"protein": "B1", "values": [
      {"measurement": "stoichiometry N", "result": 2}
    ]},
    {"protein": "B2", "values": [
      {"measurement": "stoichiometry N", "result": 2}
    ]}
  ]
}
